This is an account of results in article PMC6511404.

Read-outs that look alike come from different tables or passages of the source.

The target in test [1] is E. coli enolase, detagged (His tag removed by thrombin) (E. coli). Description: crystal structure.
Test [2] has the same target. Description: crystal structure. This is another data set of the same source.

Sequence of E. coli enolase, detagged (His tag removed by thrombin) (enzyme) (A1AEW7 2-432): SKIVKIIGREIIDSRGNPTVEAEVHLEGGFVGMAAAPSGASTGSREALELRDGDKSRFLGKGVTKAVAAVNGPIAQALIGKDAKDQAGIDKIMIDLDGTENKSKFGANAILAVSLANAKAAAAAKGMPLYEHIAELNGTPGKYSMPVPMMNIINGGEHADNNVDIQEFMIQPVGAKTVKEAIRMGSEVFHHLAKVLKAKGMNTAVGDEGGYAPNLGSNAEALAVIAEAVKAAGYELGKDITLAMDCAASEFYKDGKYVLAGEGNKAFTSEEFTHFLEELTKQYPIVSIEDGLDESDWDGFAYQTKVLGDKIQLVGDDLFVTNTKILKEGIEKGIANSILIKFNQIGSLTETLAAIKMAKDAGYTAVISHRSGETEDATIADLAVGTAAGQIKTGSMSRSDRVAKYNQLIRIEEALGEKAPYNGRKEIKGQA

As usually defined, the stoichiometry N is a count of units in the complex or per binding partner. Turning to “E. coli enolase, detagged (His tag removed by thrombin) (enzyme)”, the stoichiometry N in test [1] was found to be 2; in test [2] it was 6.
